From patent publication US20260167703A1 (Takeda / Millennium, published 2026)
Like-named read-outs stand apart in the source and are kept apart here.

B1: DENV4-7F2 (antibody, V domains shown)
VH: QSVEESGGRLVTPGTPLTLTCTVSGIDLSYYAMGWVRQAPGEGLECIGFIDTGDSAYYASWAKGRFTISKTSSTTVDLKITSPTPEDTATYFCGRSLSSYYDWDAFDPWGPGTLVTVSS
VL: AYDMTQTPASVEVAVGGTVTINCQASQTIGNLLAWYQQKPGQRPKLLIYRASTLASGVPSRFKGSGSGTQFTLTISGVECADAATYYCQQGASANDIDNSFGGGTAVVVK
notes: also called Clone 7F2
B2: DENV4-10A11 (antibody, V domains shown)
VH: QSVEESGGRLVTPGTPLTLTCTVSGINLSFYAMGWVRQAPGKGLECVGFIDTDNSAYYASWAKGRFTISKTSTTVDLKITSPTTEDTATYFCARSLSSFYDWDAFDPWGPGTLVTVSS
VL: AYDMTQTPASVEVAVGGTVTIKCLASQSISNLLAWYQQKPGQRPKLLIYRASTLASGVPSRFKGSGSGTQFTLTISGVECADAATYYCQQGASNSDIDNAFGGGTEVVVK
notes: also called Clone 10A11; 10A1l
B3: DENV2-3H11 (antibody, V domains shown)
VH: QSVEESGGRLVTPGTPLTLTCTVSGFSLINYDMSWIRQAPGKGLEWIGMVSGGGHTNYASWANGRFTISKTSSTTMDLKITSPTTEDTASYFCGRWDIWGPGTLVTVSL
VL: AVVVTQTASPVSAAVGGTVTISCQSSQSVYDDNWLAWYQQKPGQPPKQLIYRASRLASGVPSRFSGTGSGTQFTLTISGVQCDDAATYYCLGGYVDDGDTTFGGGTEVVVK
notes: also called DENV2-3H111
B4: DENV4-7D5 (antibody, V domains shown)
VH: QSVEESGGRLVTPGTPLTLTCTVSGIDLSSWEMGWVRQAPGKGLEWIGIIFPSGTIYYANWAKGRFAISKASTTVDLKITSPTTEDTATYFCGRHGGSLYLNIWGPGTLVTVSL
VL: AQVLTQTPSPVSAAVGGTVTINCQASQSVYVNRNLAWYQQKPGQPPKVLIYEASKLASGVPSRFKGSGSGTQFTLTISGVQCDDAATYYCQGEFGCSSADCIAFGGGTEVVVK
notes: also called Clone 7D5
B5: DENV4-8C7 (antibody, V domains shown)
VH: QSVEESGGRLVTPGTPLTLTCTVSGIDLSSYEMGWVRQAPGKGLEWIGIIFPSGTIYYANWAKGRFTISKTSTTVDLKITSPTTEDTATYFCGRHGGSLYLNIWGPGTLVTVSL
VL: AQVLTQTPSPVSAAVGGTVTINCQASQSVYVNRNLAWYQQKPGQPPKVLIYEASKLASGVPSRFKGSGSGTQFTLTISGVQCDDAATYYCQGEFGCSSADCIAFGGGTEVVVK
notes: also called Clone 8C7
B6: DENV4-9G8 (antibody, V domains shown)
VH: QSLEESGGGLVKPGASLTLTCTASGFSFSYRYWMSWVRQAPGKRPEWIACIDTGNGDTYYASRAKGRFTIMKTSSTTVTLQMTSLTVADTATYFCARSDVTLTGYGYGNLWGPGTLVTVSS
VL: DSVMTQTPASVSEPVGGTVTINCQASHNIYNSLAWYQQKPGQPPKLLIYRASTLESGVPSRVKGSGYGTEYTLTISDLECADAATYYCQQYYGGDDDGFGFGGGTEVVVK
notes: also called Clone 9G8
B7: DENV2-5F4 (antibody, V domains shown)
VH: QSVEESGGRLVKPDETLTLTCTVSGIDLSNTVISWVRQAPGKGLEYIGMITPSGSAYSATWAKGRVTISRTSTTVDLKIASPTTEDTATYFCARIAWSTGRNDIWGPGTLVTVSS
VL: AAVLTQTPPSVSAAVGGTVTIKCQSSQSVYNNNALSWYQQKPGQPPKLLIYQASKLSSGVSSRFSGSGSGTHFTLTISGVQCDDAATYYCLGIYDDDVDNTFGGGTEVVVG
B8: DENV2-8D8 (antibody, V domains shown)
VH: QSLEESGGRLVKPDETLTLTCTVSGIDLSSTIITWVRQAPGKGLEYIGIIGSSGSIISANWAKGRFTISRTSTTVDLKMTSLTTEDTATYFCARIAWSTGRNDIWGPGTLVTVSS
VL: AAVLTQTPPSVSAAVGGTVTISCQSSQSVYNNNALSWYQQKPGQPPKLLIYLASNLASGVPSRFSGSGSGTQFTLTISGVQCDDAATYHCLGVDDDDVDNTFGGGTEVVVK
B9: DENV4-5B11 (antibody, V domains shown)
VH: QSVEESGGRLVTPGTPLTLTCTVSGFSLSDSAMSWVRQAPGKGLEWIGYIYAGSGTTYYASWAKGRFTISKTSTTVDLKITSPTTEDTATYFCARATAYVGYGYGDDTFDPWGPGTLVTVSS
VL: AYDMTQTPASVEVAVGGTVTIKCQASQSISSYLSWYQQKPGQRPKLLIYRASTLASGVSSRFKGSGSGTEFTLTISGVQCDDAATYYCQQGYSNSDVDNVFGGGTEVVVK
notes: also called Clone 5B11
B10: DENV4-7G4 (antibody, V domains shown)
VH: QSVEESGGRLVTPGTPLTLTCTVSGFSLSSCAMTWVRQAPGKGLEWIGYIYVDSDTTYYASWAKGRFTISTTSTTVDLRITSPTTEDTATYFCARTTAYVGGGYGDDTFDPWGPGTLVTVSS
VL: DVVMTQTPASVEAAVGGTVTINCQASQNINSYLSWYQQKPGQRPKLLIYRAFTLASGVSSRFKGSGSGTQFTLTISGVECADAATYYCQQGYSFSGVDNVFGGGTEVVVK
notes: also called Clone 7G4

Legend:
DENV-4 VLP [1] = biological target: T1, DENV-4 VLP (Dengue virus serotype 4, strain …, UniProt P09866 114-774); experiment: Luminex, VLP-coupled beads
DENV-4 VLP [2] = biological target: T1, DENV-4 VLP
JE VLP [3] = biological target: T2, JE VLP (Japanese encephalitis virus, UniProt P27395); experiment: Luminex bead assay (antigen on MagPlex beads, MFI)
T2 construct: virus-like particle; also called Japanese Encephalitis Virus VLP
T2 sequence (P27395 128-794 limits assumed): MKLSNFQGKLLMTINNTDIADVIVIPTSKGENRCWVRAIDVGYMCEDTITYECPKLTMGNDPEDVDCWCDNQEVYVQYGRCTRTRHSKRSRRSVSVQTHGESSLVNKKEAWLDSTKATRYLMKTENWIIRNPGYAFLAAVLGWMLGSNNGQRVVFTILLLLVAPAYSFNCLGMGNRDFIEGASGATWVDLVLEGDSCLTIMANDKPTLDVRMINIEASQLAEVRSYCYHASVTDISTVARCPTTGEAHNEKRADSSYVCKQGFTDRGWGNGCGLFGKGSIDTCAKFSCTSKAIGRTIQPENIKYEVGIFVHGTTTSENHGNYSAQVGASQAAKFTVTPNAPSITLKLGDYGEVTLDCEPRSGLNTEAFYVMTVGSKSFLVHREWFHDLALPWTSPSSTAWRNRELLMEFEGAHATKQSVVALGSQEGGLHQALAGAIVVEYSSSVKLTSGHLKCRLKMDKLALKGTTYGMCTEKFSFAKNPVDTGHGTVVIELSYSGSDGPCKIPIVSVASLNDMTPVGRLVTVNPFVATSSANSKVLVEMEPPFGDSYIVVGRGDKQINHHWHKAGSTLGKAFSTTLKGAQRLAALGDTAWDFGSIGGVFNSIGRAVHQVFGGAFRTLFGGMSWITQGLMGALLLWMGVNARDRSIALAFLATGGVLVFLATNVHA

JE VLP [4] = biological target: T2, JE VLP; experiment: Luminex bead assay (antigen on MagPlex beads, MFI); remark: listed apart in the source
JE VLP [5] = biological target: T2, JE VLP; experiment: Luminex bead assay (antigen on MagPlex beads, MFI); remark: listed apart in the source
DENV-4 VLP [6] = biological target: T1, DENV-4 VLP; experiment: Luminex bead assay (antigen on MagPlex beads, MFI)
JE VLP [7] = biological target: T2, JE VLP; experiment: Luminex bead assay (antigen on MagPlex beads, MFI); remark: listed apart in the source
DENV-4 VLP [8] = biological target: T1, DENV-4 VLP; experiment: Luminex bead assay (antigen on MagPlex beads, MFI); remark: listed apart in the source

Binder | EC50 (DENV-4 VLP [1]) | Response (nm) (DENV-4 VLP [2]) | koff (DENV-4 VLP [2]) | binding result (JE VLP [3]) | binding result (JE VLP [4]) | binding result (JE VLP [5]) | binding result (DENV-4 VLP [6]) | binding result (JE VLP [7]) | binding result (DENV-4 VLP [8])
B1 | 0.0407 µg/mL | 2.32 nm | 3.67e-05 s⁻¹ | no binding (tested: 10000 ng/mL) |  |  |  |  | 
B2 | 0.0236 µg/mL | 2.17 nm | 4.17e-05 s⁻¹ |  | no binding (tested: 10000 ng/mL) |  |  |  | 
B3 |  |  |  |  |  | no binding (tested: 10000 ng/mL) | no binding (tested: 10000 ng/mL) |  | 
B4 | 0.0232 µg/mL | 2.45 nm | 3.56e-05 s⁻¹ | no binding (tested: 10000 ng/mL) |  |  |  |  | 
B5 | 0.0176 µg/mL | 2.38 nm | 3.32e-05 s⁻¹ |  | no binding (tested: 10000 ng/mL) |  |  |  | 
B6 | 0.0713 µg/mL | 0.137 nm | < 2e-05 s⁻¹ |  | no binding (tested: 10000 ng/mL) |  |  |  | 
B7 |  |  |  |  |  |  |  | no binding (tested: 10000 ng/mL) | no binding (tested: 10000 ng/mL)
B8 |  |  |  |  |  |  |  | no binding (tested: 10000 ng/mL) | no binding (tested: 10000 ng/mL)
B9 | 0.0192 µg/mL | 2.39 nm | 2.36e-05 s⁻¹ | no binding (tested: 10000 ng/mL) |  |  |  |  | 
B10 | 0.0214 µg/mL | 2.16 nm | < 2e-05 s⁻¹ | no binding (tested: 10000 ng/mL) |  |  |  |  | 
